Measured values taken from PMC3695765.

Molecular target: FLAG-ZO-2 (UniProt Q9UDY2)
Assay: GST pull-down from cell lysate
Settings: reference: GST-OccC not prephosphorylated; sites T400,T404,S408

## occludin C-terminal cytoplasmic tail, 263-523 (from UniProt Q16625) GST-OccC prephosphorylated by CK2
  binding against the reference: weaker
